Reference: patent US11345725B2, “Bis-thioether stapled peptides as inhibitors of PRC2 function” (Research Foundation of the City University of New York, priority 2019, dated 2022)
Starred links: 1 amine or outer side, 2 acyl side, 3 side chain; linkers in the order of their positions; H or OH if unused. Positions of bridges follow the written chain, without caps; N, C: chain ends. Residues, ends and D or L forms follow the SMILES beside them. X6 = C(=C\C[*:2])/C[*:1]; X4 = C(CCC[*:2])CC[*:1]; X2 = C(CC[*:1])CC[*:2]; X3 = C(CC[*:2])C[*:1]; X1 = C(C[*:1])C[*:2]

What was measured:
[1] = circular dichroism; settings: deionized water; pH unbuffered; 20 °C; 25 uM
[2] = FIG. 2D
From the text: Table printed on a drawing sheet, FIG. 2D
(§1) The patent's description of the figure: FIG. 2A depicts the results of biochemical assays showing structure of the synthesized stapled peptides, and their correspondent helicity and IC50 values for inhibition of H3K27 trimethylation in vitro, as determined by a histone methyltransferase colorimetric assay optimized using endogenous PRC2 extracted from a human clear cell renal carcinoma cell line (Caki-1);
(§2) FIG. 2B depicts a CD spectra of stapled peptides and their linear counterparts measured in water at 20° C.;
FIG. 2C illustrates a plot of H3K27 trimethylation inhibition using the enzymatic in vitro assay described in FIG. 2A, with varying concentrations of 2 (GN-ZB2), positive control GSK126, and using an equimolar combination of both compounds to test their synergistic effects. A summary of the IC50 values for inhibition of H3K27me3 determined from the experiments is also presented. […]
(§3) FIG. 2D show both Chymotrypsin-based proteolytic degradation as well as the plasma assay show remarkable stability of the disclosed i, i+4 and i, i+7 12 bisthioether stapled peptides. The rate of peptide proteolysis was monitored by HPLC and HPLC-MS analysis.
First reader's note: The Assay column joins the peptide number (label) with the matrix (chymotrypsin or plasma, condition); units stand in the cells.

[3] = system: Caki-1 cells; assay type: cell-based, human; settings: Caki-1 cells
Procedure: All of the cells were grown adherently.
Antiproliferative assays. […] For the following 72h, every 24 h the cell culture media was changed and fresh media containing the compounds was added, 1% DMSO was used as control. After 72h of treatment, both floating and attached cells were collected and analyzed.

[4] = system: endogenous PRC2 extracted from a human clear cell renal carcinoma cell line (Caki-1); assay: IC50 (uM)
From the text: Table printed on a drawing sheet, FIG. 2A
Head of the field: IC50 (uM)
as §1, §2
FIG. 2C illustrates a plot of H3K27 trimethylation inhibition using the enzymatic in vitro assay described in FIG. 2A, with varying concentrations of 2 (GN-ZB2), positive control GSK126, and using an equimolar combination of both compounds to test their synergistic effects. A summary of the IC50 values for inhibition of H3K27me3 determined from the experiments is also presented. Calculation of the combination index using the equation described by Chou et al. indicated a marked synergistic effect (CI=0.53) of 2 (GN-ZB2) and GSK126;
as §3
First copying reader's note: IC50 cells hold the value and its ± error together.
Where the first naming reader finds the target: description_of_the_figure: histone methyltransferase colorimetric assay optimized using endogenous PRC2 extracted from a human clear cell renal carcinoma cell line (Caki-1)

[5] = biological target: T1, α-chymotrypsin from bovine pancreas type II (Bos taurus, UniProt P00766); assay: Chymotrypsin stability test; assay type: in vitro ADME
T1 construct: freshly prepared α-chymotrypsin from bovine pancreas type II, ≥40 U/mg; purchased; host or cells: bovine pancreas
Procedure: Assays were performed using freshly prepared α-chymotrypsin from bovine pancreas type II, ≥40 U/mg. The enzyme was initially reconstituted in HCl […] (1 μg/μL), and kept in ice until used. Peptides stock solutions were prepared in assay buffer (50 mM Tris.HCl pH=8.0, 560 μM calcium chloride, 0.1% Tween-20) containing <3% of DMSO. The reactions were performed at a 200 μL scale, in assay buffer, at final concentrations of 50 μM for peptide and […] for α-chymotrypsin (10 μL from the reconstitution solution). The mixture was incubated at 37° C. and aliquots were withdrawn in portions of 25 μL at different time points for analysis. The removed aliquots were mixed with 25 μL of water 1% TFA, and then treated with a column for detergent removal following the manufacturer's protocol (Pierce, Catalog #:87776). The rate of peptide proteolysis was monitored by HPLC and HPLC-MS analysis. Control experiments were carried out under the same conditions but using BSA instead of α-chymotrypsin.

Compound	helicity [1]	also measured
CC[C@H](C)[C@H](NC(=O)[C@@H]1CSCCCCCCSC[C@H](NC(=O)[C@@H](NC(=O)[C@@H](NC(C)=O)C(C)C)[C@@H](C)CC)C(=O)N[C@@H](CCC(=O)O)C(=O)N[C@@H](CCC(=O)O)C(=O)N[C@@H](Cc2ccc(O)cc2)C(=O)N1)C(=O)N[C@@H](Cc1c[nH]c2ccccc12)C(=O)N[C@@H](CCCCN)C(=O)N[C@@H](CCCCN)C(=O)N[C@@H](CC(N)=O)C(=O)N[C@H](C(=O)N1CCC[C@H]1C(=O)N[C@@H](Cc1ccccc1)C(=O)N[C@@H](CC(C)C)C(N)=O)[C@@H](C)O (Ac-VICEEYCIWKKNTPFL-NH2; linker 3-7 via X4)	19.4%	
CC[C@H](C)[C@H](NC(=O)[C@@H]1CSC/C=C/CSC[C@H](NC(=O)[C@@H](NC(=O)[C@@H](NC(C)=O)C(C)C)[C@@H](C)CC)C(=O)N[C@@H](CCC(=O)O)C(=O)N[C@@H](CCC(=O)O)C(=O)N[C@@H](Cc2ccc(O)cc2)C(=O)N1)C(=O)N[C@@H](Cc1c[nH]c2ccccc12)C(=O)N[C@@H](CCCCN)C(=O)N[C@@H](CCCCN)C(=O)N[C@@H](CC(N)=O)C(=O)N[C@H](C(=O)N1CCC[C@H]1C(=O)N[C@@H](Cc1ccccc1)C(=O)N[C@@H](CC(C)C)C(N)=O)[C@@H](C)O (Ac-VICEEYCIWKKNTPFL-NH2; linker 3-7 via X6)	19%	
CC[C@H](C)[C@@H]1NC(=O)[C@@H](NC(=O)[C@H](Cc2ccc(O)cc2)NC(=O)[C@H](CCC(=O)O)NC(=O)[C@H](CCC(=O)O)NC(=O)[C@H](CC(N)=O)NC(=O)[C@@H](NC(=O)[C@@H](NC(C)=O)C(C)C)[C@@H](C)CC)CSCCCSC[C@@H](C(=O)N[C@@H](CC(N)=O)C(=O)N[C@H](C(=O)N2CCC[C@H]2C(=O)N[C@@H](Cc2ccccc2)C(=O)N[C@@H](CC(C)C)C(N)=O)[C@@H](C)O)NC(=O)[C@H](CCCCN)NC(=O)[C@H](Cc2c[nH]c3ccccc23)NC1=O (Ac-VINEEYCIWKCNTPFL-NH2; linker 7-11 via X1)	18.4%	
CC[C@H](C)[C@@H]1NC(=O)[C@@H](NC(=O)[C@H](Cc2ccc(O)cc2)NC(=O)[C@H](CCC(=O)O)NC(=O)[C@H](CCC(=O)O)NC(=O)[C@H](CC(N)=O)NC(=O)[C@@H](NC(=O)[C@@H](NC(C)=O)C(C)C)[C@@H](C)CC)CSCCCCCSC[C@@H](C(=O)N[C@@H](CC(N)=O)C(=O)N[C@H](C(=O)N2CCC[C@H]2C(=O)N[C@@H](Cc2ccccc2)C(=O)N[C@@H](CC(C)C)C(N)=O)[C@@H](C)O)NC(=O)[C@H](CCCCN)NC(=O)[C@H](Cc2c[nH]c3ccccc23)NC1=O (Ac-VINEEYCIWKCNTPFL-NH2; linker 7-11 via X2)	5.68%	
CC[C@H](C)[C@@H]1NC(=O)[C@@H](NC(=O)[C@H](Cc2ccc(O)cc2)NC(=O)[C@H](CCC(=O)O)NC(=O)[C@H](CCC(=O)O)NC(=O)[C@H](CC(N)=O)NC(=O)[C@@H](NC(=O)[C@@H](NC(C)=O)C(C)C)[C@@H](C)CC)CSCCCCSC[C@@H](C(=O)N[C@@H](CC(N)=O)C(=O)N[C@H](C(=O)N2CCC[C@H]2C(=O)N[C@@H](Cc2ccccc2)C(=O)N[C@@H](CC(C)C)C(N)=O)[C@@H](C)O)NC(=O)[C@H](CCCCN)NC(=O)[C@H](Cc2c[nH]c3ccccc23)NC1=O (Ac-VINEEYCIWKCNTPFL-NH2; linker 7-11 via X3)	16.5%	
CC[C@H](C)[C@@H]1NC(=O)[C@@H](NC(=O)[C@H](Cc2ccc(O)cc2)NC(=O)[C@H](CCC(=O)O)NC(=O)[C@H](CCC(=O)O)NC(=O)[C@H](CC(N)=O)NC(=O)[C@@H](NC(=O)[C@@H](NC(C)=O)C(C)C)[C@@H](C)CC)CSCCCCCCSC[C@@H](C(=O)N[C@@H](CC(N)=O)C(=O)N[C@H](C(=O)N2CCC[C@H]2C(=O)N[C@@H](Cc2ccccc2)C(=O)N[C@@H](CC(C)C)C(N)=O)[C@@H](C)O)NC(=O)[C@H](CCCCN)NC(=O)[C@H](Cc2c[nH]c3ccccc23)NC1=O (Ac-VINEEYCIWKCNTPFL-NH2; linker 7-11 via X4)	19.4%	
CC[C@H](C)[C@@H]1NC(=O)[C@@H](NC(=O)[C@H](Cc2ccc(O)cc2)NC(=O)[C@H](CCC(=O)O)NC(=O)[C@H](CCC(=O)O)NC(=O)[C@H](CC(N)=O)NC(=O)[C@@H](NC(=O)[C@@H](NC(C)=O)C(C)C)[C@@H](C)CC)CSC/C=C/CSC[C@@H](C(=O)N[C@@H](CC(N)=O)C(=O)N[C@H](C(=O)N2CCC[C@H]2C(=O)N[C@@H](Cc2ccccc2)C(=O)N[C@@H](CC(C)C)C(N)=O)[C@@H](C)O)NC(=O)[C@H](CCCCN)NC(=O)[C@H](Cc2c[nH]c3ccccc23)NC1=O (Ac-VINEEYCIWKCNTPFL-NH2; linker 7-11 via X6)	24.2%	
CC[C@H](C)[C@@H]1NC(=O)[C@@H](NC(=O)[C@H](CC(=O)O)NC(=O)[C@@H](NC(=O)[C@@H](NC(C)=O)[C@@H](C)O)C(C)C)CSCCCSC[C@@H](C(=O)N[C@@H](CC(C)C)C(=O)N[C@@H](CO)C(=O)N[C@H](C(=O)N[C@@H](CC(C)C)C(=O)N[C@@H](C)C(=O)N[C@@H](CCC(=O)O)C(=O)N[C@@H](CCC(=O)O)C(=O)N[C@H](C(=O)N2CCC[C@H]2C(=O)N[C@@H](CCC(N)=O)C(=O)N[C@@H](CC(N)=O)C(N)=O)C(C)C)C(C)C)NC(=O)[C@H](CO)NC(=O)[C@H](C)NC1=O [2 Chymotrypsin] (Ac-TVDCIASCLSVLAEEVPQN-NH2; linker 4-8 via X1)		Half Life [2]: 40.9 h
CC[C@H](C)[C@@H]1NC(=O)[C@@H](NC(=O)[C@H](CC(=O)O)NC(=O)[C@@H](NC(=O)[C@@H](NC(C)=O)[C@@H](C)O)C(C)C)CSCCCSC[C@@H](C(=O)N[C@@H](CC(C)C)C(=O)N[C@@H](CO)C(=O)N[C@H](C(=O)N[C@@H](CC(C)C)C(=O)N[C@@H](C)C(=O)N[C@@H](CCC(=O)O)C(=O)N[C@@H](CCC(=O)O)C(=O)N[C@H](C(=O)N2CCC[C@H]2C(=O)N[C@@H](CCC(N)=O)C(=O)N[C@@H](CC(N)=O)C(N)=O)C(C)C)C(C)C)NC(=O)[C@H](CO)NC(=O)[C@H](C)NC1=O [2 Plasma] (Ac-TVDCIASCLSVLAEEVPQN-NH2; linker 4-8 via X1)		Half Life [2]: 20.6 h
CC[C@H](C)n1cc(C)c2c(C(=O)NCc3c(C)cc(C)[nH]c3=O)cc(-c3ccc(N4CCNCC4)nc3)cc21 [GSK126]		IC50 ([3]; 72h daily treatment, colorimetric method, read-out: IC50 cell proliferation): 0.15 ± 0.06 µM; effect on cell proliferation ([3]; 72h of daily treatment): significantly inhibits cell proliferation
Ac-EWLREKTITQIEEF-NH2	20.9%	
Ac-LCRNFMLHLVSMHDFLI-NH2	59.9%	
Ac-TVDKIASA[CSVLAEEC]PQN-CONH2 CH2(CH2)4CH2 (TVDKIASACSVLAEECPQN; N-acetyl, C-amide, hexylene bisthioether staple; Synthetic bisthioether stapled peptide; compound 4; THIOETH (9)..(16) (CH2)6 linker between residues 9 and 16) [4 | SEQ ID NO: 6]		IC50 [4]: 10.1 ± 1.1 µM
Ac-TVDKIASA[CSVLAEEC]PQN-CONH2 CH2(CH2)5CH2 (TVDKIASACSVLAEECPQN; N-acetyl, C-amide, heptylene bisthioether staple; Synthetic bisthioether stapled peptide; Compound 5; THIOETH (9)..(16) (CH2)7 linker between residues 9 and 16) [5 | SEQ ID NO: 7]		IC50 [4]: 27.1 ± 1.2 µM
Ac-TVDKIASA[CSVLAEEC]PQN-CONH2 CH2(CH2)6CH2 (TVDKIASACSVLAEECPQN; N-acetyl, C-amide, octylene bisthioether staple; Synthetic bisthioether stapled peptide; Compound 6; THIOETH (9)..(16) (CH2)8 linker between residues 9 and 16) [6 | SEQ ID NO: 8]		IC50 [4]: 17 ± 1.4 µM
Ac-VINEEYKIWKKNTPFL-NH2 [compound 13, reference compound]	16.4%	time to full degradation by chymotrypsin [5]: half an hour; half-life ([5]; bovine, read-out: t1/2 chymotrypsin stability assay (converted)): 0.5 h
